Target: taxol-stabilised ATTO 647N-labelled microtubules (UniProt P02550 1-451, ATTO 647N label (which chain and residues not stated) | ATTO 647N label (which chain and residues not stated))
Experiment: TIRF microscopy, saturation binding curve; CENP-V-eGFP titrated onto surface-bound taxol-stabilised ATTO 647N-labelled microtubules; BRB80 (80 mM PIPES pH 6.8, 1 mM MgCl2, 1 mM EGTA) with 10 µM taxol, casein, DTT; 25 °C, 15 m equilibration; GFP intensity per micrometer of at least 100 microtubules per condition; Hill (cooperative) fit
Details: both partners purified

Kd: 53.2 ± 4.5 nM
B1: His6-CENP-V-eGFP (natural protein, UniProt Q9CXS4 1-252, looked up)
chain: MRRTRSAVATGPREQRRSGATGGLSGGESRAQRSRSRTRAGAGGGGGAVGPQPSAKPRPKPPPRAQEAAAEEPPPAVTPAASVSALDLGEQRERWETFQKRQRLSFEGAAKLLLDTFEYQGLVKHTGGCHCGAVRFEVWASADLHIFDCNCSICKKKQNRHFIVPASRFKLLKGAESITTYTFNTHKAQHTFCKRCGVQSFYTPRSNPGGFGIAPHCLDEGTVRSVVTEEFNGSDWERAMKEHKTIKNMSKE
notes: CENP-V (centromere protein V); also called CENP-V-GFP; recombinant CENP-V-eGFP

From publication PMC8586017, “CENP-V is required for proper chromosome segregation through interaction with spindle microtubules in mouse oocytes” (Nature Communications, 2021)
